These results are taken from patent publication US6395526B1, “DNA polymerase” (Takara Shuzo Co., Ltd., priority 1995, dated 2002).

Entries after “also recorded” stand apart in the source; their conditions may differ.

Series [1] has as its system substrate DNA (template-primer). Kind of series: DNA polymerase activity on different forms of substrate DNA (template-primer). In kind it is biochemical. As for the experimental part: The DNA polymerase activity was assayed using calf thymus DNA (manufactured by Worthington) activated by DNase I treatment (activated DNA) as a substrate. DNA activation and assay of DNA polymerase activity were carried out by the method described in DNA Polymerase from Escherichia coli, 263-276 (authored by C. C. Richardson), published by Harper & Row, edited by D. R. Davis.
An assay of enzyme activity was carried out by the following method. Specifically, 50 μl of a reaction solution [20 mM Tris-HCl (pH 7.7), 15 mM MgCl2, 2 mM 2-mercaptoethanol, 0.2 mg/ml activated DNA, 40 μM each of dATP, dCTP, dGTP and dTTP, 60 nM [^3H]-dTTP (manufactured by Amersham)], containing a sample for assaying its activity, was prepared and reacted at 75° C. for 15 minutes. A 40 μl portion of this reaction mixture was then spotted onto a DE paper (manufactured by Whatman) and washed with 5% Na2HPO4 five times. The remaining radioactivity on the DE paper was assayed using a liquid scintillation counter. The amount of enzyme which incorporated 10 nmol of [^3H]-dTMP per 30 minutes into the substrate DNA, assayed by the above-described enzyme activity assay method, was defined as one unit of the enzyme.
Next, in order to compare the selectivity of the DNA polymerase of the present invention for different forms of substrate DNA, the following template-primer was examined. Aside from the activated DNA used for conventional assay of the activity, those prepared as substrates include a thermal-denatured DNA prepared by treating the activated DNA at 85° C. for 5 minutes; M13-HT Primer prepared by annealing a 45-base synthetic deoxyribooligonucleotide of the sequence as shown by SEQ ID NO:6 in Sequence Listing as a primer to the M13 phage single stranded DNA (M13mp18 ssDNA, manufactured by Takara Shuzo Co., Ltd.); M13-RNA Primer prepared by annealing a 17-base synthetic ribooligonucleotide of the sequence as shown by SEQ ID NO:7 in Sequence Listing as a primer to the same M13 phage single stranded DNA; Poly dA-Oligo dT prepared by mixing polydeoxyadenosine (Poly dA, manufactured by Pharmacia) and oligodeoxythymidine (Oligo dT, manufactured by Pharmacia) in a 20:1 molar ratio; and Poly A-Oligo dT prepared by mixing polyadenosine (Poly A, manufactured by Pharmacia) and oligodeoxythymidine in a 20:1 molar ratio.
The DNA polymerase activity was assayed using these substrates in place of the activated DNA. The relative activity of each substrate when the activity obtained in the case of using an activated DNA as a substrate is defined as 100 is shown in Table 1. For comparison, the Pfu DNA polymerase and the Taq DNA polymerase derived from Thermus aquaticus (TaKaRa Taq, manufactured by Takara Shuzo Co., Ltd.) were also examined in the same manner.

The test system of the next series is M13-HT Primer. Briefly: Primer extension reaction (autoradiogram, FIG. 6). In kind it is biochemical. To be noted: for inhibition of primer extension by activated DNA as competitor substrate: activated DNA added in great excess. As for the experimental part:
The primer extension activity was further investigated extensively. The M13-HT Primer, previously labeled with [γ-^32P]-ATP (manufactured by Amersham) and T4 polynucleotide kinase (manufactured by Takara Shuzo Co., Ltd.) at the 5′-end, was used as a substrate. Ten microliters of a reaction mixture [20 mM Tris-HCl (pH 7.7), 15 mM MgCl2, 2 mM 2-mercaptoethanol, 270 μM each of dATP, dGTP, dCTP and dTTP] containing the above substrate in a final concentration of […] and various DNA polymerases in amounts providing 0.05 units of activity as assayed with the activated DNA as a substrate was reacted at 75° C. for 1, 2, 3, or 4 minutes. After termination of the reaction, 2 μl of a reaction stop solution (95% […], 20 mM EDTA, 0.05% bromophenol blue, 0.05% xylenecyanol) was added, subjected to thermal denaturation treatment at 95° C. for 3 minutes. Two microliters of the reaction mixture was then subjected to electrophoresis using polyacrylamide gel containing 8 M urea and subsequently subjected to a preparation of autoradiogram. Also, in order to examine the extension activity in the presence of the activated DNA as a competitor substrate, the activated DNA was added to the above reaction mixture to a final concentration of […], and subjected to a preparation of an autoradiogram by the same procedures as described above.
In the figure, Pol, Pfu, and Taq show the results for the DNA polymerase of the present invention, the Pfu DNA polymerase and the Taq DNA polymerase, respectively. In addition, 1, 2, 3, and 4 each indicates reaction time (min). In the figure, the representation “−” and “+” show the results obtained in the absence and in the presence, respectively, of the activated DNA. The lanes G, A, T, and C at the left end of the figure also show the results of electrophoresis of the reaction products obtained by a chain termination reaction by the dideoxy method using the same substrate as above, which were used to estimate the length of each extension product.

Series [2] relates to activated DNA. Kind of series: Optimum KCl and MgCl2 concentrations for DNA polymerase activity. It is filed as biochemical, calf. As for the experimental part:
For a DNA polymerase preparation forming a complex of the translation products of ORF3 and ORF4 obtained in Example 3, namely the first DNA polymerase-constituting protein and the second DNA polymerase-constituting protein in a ratio at 1:1, optimum MgCl2 and KCl concentrations were firstly assayed. The DNA polymerase activity was assayed in a reaction system containing 20 mM Tris-HCl, pH 7.7, 2 mM 2-mercaptoethanol, 0.2 mg/ml activated DNA, and 40 μM each of dATP, dGTP, dCTP and dTTP in the presence of 2 mM MgCl2, while the KCl concentration was step by step increased from 0 to 200 mM KCl for each 20 mM increment. […] Next, the DNA polymerase activity was assayed in the same reaction system but in the presence of 60 mM KCl in this time, while the MgCl2 concentration was step by step increased from 0.5 to 25 mM MgCl2 for each 2.5 mM increment, to compare at each concentration.

The subject of series [3] is activated DNA. Briefly: Optimum pH and temperature of DNA polymerase activity. It is filed as biochemical, calf. As to conditions: Tris-HCl in place of potassium phosphate; highest pH level used in the assay. As to the method:
However, because the double stranded structure of the activated DNA used as a substrate for activity assay is destructed at higher temperatures, an accurate optimum temperature for the activity of the above enzyme has not been assayed. […] This level of the heat stability allows the use of the above enzyme for PCR method.
The optimum pH was then assayed. […], and preparing a reaction mixture comprising 20 mM potassium phosphate, 15 mM MgCl2, 2 mM 2-mercaptoethanol, 0.2 mg/ml activated DNA, 40 μM each of dATP, dCTP, dGTP and dTTP, and 60 nM [^3H]-dTTP. The results are shown in FIG. 3, wherein the abscissa indicates the pH, and the ordinate indicates the radioactivity incorporated in high-molecular DNA.

[4] abbreviates: substrate M13-HT primer, activated DNA = 100.
[5] abbreviates: substrate M13-RNA primer, activated DNA = 100.
[6] abbreviates: substrate activated DNA (defined as 100).
The mark [7] stands for this setting: substrate poly A-Oligo dT, activated DNA = 100.
Setting [8] is: substrate poly dA-Oligo dT, activated DNA = 100.
[9] abbreviates: substrate thermal-denatured DNA, activated DNA = 100.

As for “Taq DNA Polymerase: Taq DNA polymerase derived from Thermus aquaticus (TaKaRa Taq, manufactured by Takara Shuzo Co., Ltd.) [reference compound]”, the “Relative Activity” value worked out at 90 in series [1] (setting [4]); 38 in series [1] (setting [5]); 100 in series [1] (setting [6]); 0.063 in series [1] (setting [7]); 290 in series [1] (setting [8]); 130 in series [1] (setting [9]). For the same substance, the “inhibition of primer extension by activated DNA as competitor substrate” value with M13-HT Primer was “markedly inhibited; also recorded: strongly inhibited”.

In the case of “DNA Polymerase of the Present Invention: complex of first (ORF3, SEQ ID NO:2) and second (ORF4, SEQ ID NO:4) DNA polymerase-constituting proteins from Pyrococcus furiosus”, the “Relative Activity” value is recorded as 170 in series [1] (setting [4]); 52 in series [1] (setting [5]); 100 in series [1] (setting [6]); 0.085 in series [1] (setting [7]); 94 in series [1] (setting [8]); 340 in series [1] (setting [9]). Moreover, the “MgCl2 concentration of maximum activity” value in the series on activated DNA [2] (in the absence of KCl) came to 17.5 mM; in the series on activated DNA [2] (in the presence of 60 mM KCl), 10 mM. In addition, the “KCl concentration of maximum activity” value in the series on activated DNA [2] (in the presence of 2 mM MgCl2, 20 mM Tris-HCl pH 7.7) stood at 60 mM. For the same substance, the “pH of maximum activity” value in the series on activated DNA [3] is 8.02. In the series on M13-HT Primer (M13-HT Primer, 75° C., 1-4 min, compared with Pfu and Taq DNA polymerases), the primer extension activity entry is “superior primer extension activity”. Further, the “inhibition of primer extension by activated DNA as competitor substrate” value in the series with M13-HT Primer is on record as “unlikely to be inhibited; also recorded: inhibited at a low level”.
